Laboratory results from the Immune Epitope Database (IEDB).
One block for each sequence: values may come before it.

Columns and labels:
HLA-C*14:02 = assay: IEDB peptide-MHC binding, purified MHC/direct/fluorescence; filed as Kd, often an IC50 or EC50 that approximates it; ≥ and ≤ were set here for values at or beyond the usual limits of such assays
HLA-B*07:02 [1] = assay: IEDB peptide-MHC binding, purified MHC/competitive/fluorescence; filed as Kd, often an IC50 or EC50 that approximates it; ≥ and ≤ were set here for values at or beyond the usual limits of such assays; details: source organism: Influenza A virus (A/Memphis/1/1978(H1N1))
HLA-C*15:02 = assay: IEDB peptide-MHC binding, purified MHC/direct/fluorescence; filed as Kd, often an IC50 or EC50 that approximates it; ≥ and ≤ were set here for values at or beyond the usual limits of such assays; details: source organism: Homo sapiens
HLA-A*01:01 [2] = assay: IEDB peptide-MHC binding, purified MHC/competitive/fluorescence; filed as Kd, often an IC50 or EC50 that approximates it; ≥ and ≤ were set here for values at or beyond the usual limits of such assays; details: source organism: Homo sapiens
HLA-A*29:02 [3] = assay: as above; details: source organism: Homo sapiens
HLA-C*07:02 = assay: IEDB peptide-MHC binding, purified MHC/direct/fluorescence; filed as Kd, often an IC50 or EC50 that approximates it; ≥ and ≤ were set here for values at or beyond the usual limits of such assays
HLA-C*12:03 = assay: as above; details: source organism: Vaccinia virus
HLA-A*02:01 [4] = assay: IEDB peptide-MHC binding, purified MHC/competitive/fluorescence; filed as Kd, often an IC50 or EC50 that approximates it; ≥ and ≤ were set here for values at or beyond the usual limits of such assays; details: source organism: Vaccinia virus
HLA-B*08:01 [5] = assay: IEDB peptide-MHC binding, purified MHC/competitive/radioactivity; filed as Kd, often an IC50 or EC50 that approximates it; ≥ and ≤ were set here for values at or beyond the usual limits of such assays; details: source organism: Vaccinia virus WR
HLA-A*02:03 = assay: IEDB peptide-MHC binding, purified MHC/direct/fluorescence; filed as Kd, often an IC50 or EC50 that approximates it; ≥ and ≤ were set here for values at or beyond the usual limits of such assays
HLA-A*02:11 = assay: as above
HLA-A*02:12 = assay: as above
HLA-A*02:19 = assay: as above
HLA-A*03:01 [6] = assay: as above
HLA-A*24:03 = assay: as above; details: source organism: Yersinia pestis CA88-4125
HLA-A*26:01 = assay: as above
HLA-B*15:01 = assay: as above
HLA-B*18:01 = assay: as above
HLA-B*27:03 = assay: as above
HLA-B*39:01 = assay: as above; details: source organism: Yersinia pestis CA88-4125
HLA-B*46:01 [7] = assay: as above
HLA-B*51:01 = assay: as above
HLA-B*57:01 = assay: as above
HLA-A*01:01 [8] = assay: as above
HLA-A*26:02 = assay: as above
HLA-A*80:01 = assay: as above; details: source organism: West Nile virus
HLA-A*02:01 [9] = assay: as above
HLA-A*02:16 = assay: as above; details: source organism: Vibrio vulnificus YJ016
HLA-A*29:02 [10] = assay: as above; details: source organism: Vibrio vulnificus YJ016
HLA-A*69:01 = assay: as above
HLA-A*03:01 [11] = assay: IEDB peptide-MHC binding, purified MHC/competitive/fluorescence; filed as Kd, often an IC50 or EC50 that approximates it; ≥ and ≤ were set here for values at or beyond the usual limits of such assays; details: source organism: Robiginitalea biformata HTCC2501
HLA-A*11:01 [12] = assay: as above; details: source organism: Robiginitalea biformata HTCC2501
HLA-A*31:01 = assay: as above; details: source organism: Robiginitalea biformata HTCC2501
HLA-A*11:01 [13] = assay: IEDB peptide-MHC binding, purified MHC/direct/fluorescence; filed as Kd, often an IC50 or EC50 that approximates it; ≥ and ≤ were set here for values at or beyond the usual limits of such assays; details: source organism: Pseudomonas putida
HLA-A*30:01 = assay: as above; details: source organism: Pseudomonas putida
HLA-B*07:02 [14] = assay: as above; details: source organism: Pseudomonas putida
HLA-B*08:01 [15] = assay: as above; details: source organism: Pseudomonas putida
HLA-B*27:05 = assay: as above; details: source organism: Pseudomonas putida
HLA-B*40:01 = assay: as above; details: source organism: Pseudomonas putida
HLA-B*58:01 = assay: as above; details: source organism: Pseudomonas putida
HLA-B*73:01 = assay: IEDB peptide-MHC binding, purified MHC/competitive/fluorescence; filed as Kd, often an IC50 or EC50 that approximates it; ≥ and ≤ were set here for values at or beyond the usual limits of such assays
HLA-C*03:03 = assay: IEDB peptide-MHC binding, purified MHC/direct/fluorescence; filed as Kd, often an IC50 or EC50 that approximates it; ≥ and ≤ were set here for values at or beyond the usual limits of such assays; details: source organism: Mycobacterium tuberculosis C
HLA-B*46:01 [16] = assay: IEDB peptide-MHC binding, purified MHC/competitive/fluorescence; filed as Kd, often an IC50 or EC50 that approximates it; ≥ and ≤ were set here for values at or beyond the usual limits of such assays; details: source organism: Mycobacterium tuberculosis C
[17] = source organism: Yersinia pestis CA88-4125
[18] = source organism: West Nile virus
[19] = source organism: Vibrio vulnificus YJ016
[20] = source organism: Pseudomonas putida

Sequence: ATPENAAAL
Kd (HLA-C*14:02; source organism: Mycobacterium tuberculosis variant bovis BCG str. Pasteur 1173P2): 0.177 µM

Sequence: DPLVVAASI
Kd (HLA-B*07:02 [1]): ≥ 20 µM

Kd (HLA-C*14:02; source organism: Homo sapiens): 0.516 µM | Kd (HLA-C*15:02): 4.72 µM | Kd (HLA-A*01:01 [2]): 0.0574 µM | Kd (HLA-A*29:02 [3]): 0.0002 µM
Sequence: HMMAVTLFY

Sequence: LLYAHINAL
Kd (HLA-C*07:02; source organism: Vaccinia virus): 0.216 µM | Kd (HLA-C*12:03): 0.222 µM | Kd (HLA-A*02:01 [4]): 0.0016 µM | Kd (HLA-B*08:01 [5]): 0.00137 µM

Sequence: LPEAYQWHI
Kd (HLA-A*02:03; [17]): ≥ 20 µM | Kd (HLA-A*02:11; [17]): ≥ 20 µM | Kd (HLA-A*02:12; [17]): ≥ 20 µM | Kd (HLA-A*02:19; [17]): ≥ 20 µM | Kd (HLA-A*03:01 [6]; [17]): ≥ 20 µM | Kd (HLA-A*24:03): ≥ 20 µM | Kd (HLA-A*26:01; [17]): ≥ 20 µM | Kd (HLA-B*15:01; [17]): ≥ 20 µM | Kd (HLA-B*18:01; [17]): ≥ 20 µM | Kd (HLA-B*27:03; [17]): ≥ 20 µM | Kd (HLA-B*39:01): ≥ 20 µM | Kd (HLA-B*46:01 [7]; [17]): ≥ 20 µM | Kd (HLA-B*51:01; [17]): 0.484 µM | Kd (HLA-B*57:01; [17]): ≥ 20 µM

Sequence: LTKEEFTRY
Kd (HLA-A*01:01 [8]; [18]): 1.15 µM | Kd (HLA-A*26:01; [18]): 1.08 µM | Kd (HLA-A*26:02; [18]): 0.28 µM | Kd (HLA-A*80:01): 0.544 µM

Sequence: MKYVWPPIM
Kd (HLA-A*02:01 [9]; [19]): ≥ 20 µM | Kd (HLA-A*02:03; [19]): ≥ 20 µM | Kd (HLA-A*02:11; [19]): ≥ 20 µM | Kd (HLA-A*02:12; [19]): ≥ 20 µM | Kd (HLA-A*02:16): ≥ 20 µM | Kd (HLA-A*02:19; [19]): ≥ 20 µM | Kd (HLA-A*03:01 [6]; [19]): ≥ 20 µM | Kd (HLA-A*26:01; [19]): ≥ 20 µM | Kd (HLA-A*29:02 [10]): ≥ 20 µM | Kd (HLA-A*69:01; [19]): ≥ 20 µM | Kd (HLA-B*15:01; [19]): ≥ 20 µM | Kd (HLA-B*18:01; [19]): ≥ 20 µM | Kd (HLA-B*27:03; [19]): ≥ 20 µM | Kd (HLA-B*46:01 [7]; [19]): ≥ 20 µM | Kd (HLA-B*51:01; [19]): ≥ 20 µM | Kd (HLA-B*57:01; [19]): ≥ 20 µM

Kd (HLA-A*03:01 [11]): 6.78 µM | Kd (HLA-A*11:01 [12]): 2.38 µM | Kd (HLA-A*31:01): ≥ 20 µM
Sequence: PLAKGLFHK

Kd (HLA-A*01:01 [8]; [20]): ≥ 20 µM | Kd (HLA-A*02:01 [9]; [20]): ≥ 20 µM | Kd (HLA-A*03:01 [6]; [20]): 0.246 µM | Kd (HLA-A*11:01 [13]): 0.0548 µM | Kd (HLA-A*26:01; [20]): ≥ 20 µM | Kd (HLA-A*30:01): 0.045 µM | Kd (HLA-A*69:01; [20]): ≥ 20 µM | Kd (HLA-B*07:02 [14]): ≥ 20 µM | Kd (HLA-B*08:01 [15]): ≥ 20 µM | Kd (HLA-B*15:01; [20]): ≥ 20 µM | Kd (HLA-B*27:05): 7.53 µM | Kd (HLA-B*40:01): ≥ 20 µM | Kd (HLA-B*58:01): ≥ 20 µM | Kd (HLA-B*73:01; [20]): ≥ 20 µM
Sequence: RVWRGEQGK

Sequence: VVAANRSAF
Kd (HLA-C*14:02; source organism: Mycobacterium tuberculosis CDC1551): 0.103 µM

Sequence: YRAKVKPWA
Kd (HLA-B*73:01; source organism: Francisella tularensis subsp. tularensis FSC198): 4.5 µM

Sequence: YVFYDGPPF
Kd (HLA-A*26:02; source organism: Mycobacterium tuberculosis str. Haarlem): 0.011 µM | Kd (HLA-C*03:03): 0.01 µM | Kd (HLA-C*07:02; source organism: Mycobacterium tuberculosis C): 0.021 µM | Kd (HLA-B*46:01 [16]): 0.125 µM
